Target: T1, human fibrinogen (human, UniProt P02671 20-629; P02675 31-491; P02679 27-437, limits assumed)
T1 construct: Bought from Sigma and coated on 96-well plates; also called fibrinogen plate
T1 sequence (looked up) 1: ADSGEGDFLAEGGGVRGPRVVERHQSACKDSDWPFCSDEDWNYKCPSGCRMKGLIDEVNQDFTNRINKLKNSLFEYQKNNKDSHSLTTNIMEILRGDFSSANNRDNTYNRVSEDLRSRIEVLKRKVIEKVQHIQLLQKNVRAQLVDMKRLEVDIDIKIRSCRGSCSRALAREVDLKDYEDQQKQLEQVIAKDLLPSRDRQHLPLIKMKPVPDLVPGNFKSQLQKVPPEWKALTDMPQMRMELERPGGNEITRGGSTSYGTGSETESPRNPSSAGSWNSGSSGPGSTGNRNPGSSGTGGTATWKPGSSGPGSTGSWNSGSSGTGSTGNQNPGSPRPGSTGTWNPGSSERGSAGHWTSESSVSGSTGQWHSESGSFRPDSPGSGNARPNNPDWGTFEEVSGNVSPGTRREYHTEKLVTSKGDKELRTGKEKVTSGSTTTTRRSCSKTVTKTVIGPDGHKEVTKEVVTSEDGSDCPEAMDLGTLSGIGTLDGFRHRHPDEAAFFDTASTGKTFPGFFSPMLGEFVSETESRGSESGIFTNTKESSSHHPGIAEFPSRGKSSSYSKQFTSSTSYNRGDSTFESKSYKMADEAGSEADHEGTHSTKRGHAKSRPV
T1 sequence (looked up) 2: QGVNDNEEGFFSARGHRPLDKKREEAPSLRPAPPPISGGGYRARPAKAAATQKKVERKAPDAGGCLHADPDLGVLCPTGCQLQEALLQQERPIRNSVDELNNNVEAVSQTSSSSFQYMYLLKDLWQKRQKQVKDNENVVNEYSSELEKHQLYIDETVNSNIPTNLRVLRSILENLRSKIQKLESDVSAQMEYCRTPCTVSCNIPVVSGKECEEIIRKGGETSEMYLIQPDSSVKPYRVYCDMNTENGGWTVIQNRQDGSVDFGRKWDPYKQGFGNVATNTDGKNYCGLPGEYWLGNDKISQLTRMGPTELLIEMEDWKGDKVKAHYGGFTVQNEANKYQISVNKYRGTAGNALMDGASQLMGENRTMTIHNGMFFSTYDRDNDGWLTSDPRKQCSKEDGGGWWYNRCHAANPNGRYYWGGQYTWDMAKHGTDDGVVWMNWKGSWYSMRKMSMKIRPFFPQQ
T1 sequence (looked up) 3: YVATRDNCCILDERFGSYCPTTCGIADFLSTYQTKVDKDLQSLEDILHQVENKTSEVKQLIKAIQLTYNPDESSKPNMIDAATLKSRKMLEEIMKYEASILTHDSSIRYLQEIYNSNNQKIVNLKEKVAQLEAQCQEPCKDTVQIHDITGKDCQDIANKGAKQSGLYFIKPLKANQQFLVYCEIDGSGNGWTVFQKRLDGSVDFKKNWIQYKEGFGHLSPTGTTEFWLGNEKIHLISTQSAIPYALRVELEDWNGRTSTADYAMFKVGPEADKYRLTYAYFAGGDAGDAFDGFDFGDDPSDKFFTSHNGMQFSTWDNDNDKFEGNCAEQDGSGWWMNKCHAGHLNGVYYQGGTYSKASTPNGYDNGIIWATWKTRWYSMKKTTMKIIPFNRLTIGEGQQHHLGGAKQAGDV
Assay: ELISA on fibrinogen-coated plate (1 µg/well)

binding result: no binding
B1: 102-10 scFv specific for human fibrin (scFv)
scFv: DIQMTQSPSSLSASLGGKVTITCKASQDINKYIAWFQHKPGKGPRLLIHYTSTLQPGIPSRFSGSGSGRDYSFSISNLEPEDLATYYCLQYDNLTWTFGGGTKLEIKRGSTSGSGKPGSGEGSTKGQIQLVQSGPELKKPGETVKISCKASGYTFTNYGMNWVKQAPGKGLKWMGWINTYTGEATYADDFKGRFAFSLETSANTAYVQINNLKNEDTATYFCARLMDYWGQGTSVTVSSGGGGSGGGGSC
